± gives the uncertainty stated by the source.
B1: Syntaxin-binding protein 4, residues 493 to 538; numbered along this chain, Q6ZWJ1 (parent)
chain: LDMDCLPYGWEEAYTADGIKYFINHVTQTTSWIHPVMSVLNLSRSE

Variants of: B1
Experiment: abundance fitness (aPCA) (normalised: wild type 0, dead -1); higher = more abundant; growth selection in yeast, the domain comes from the species named
Settings: Homo sapiens

Abundance fitness, by site and new letter:
I19: P -0.761 ± 0.14, Y -0.034 ± 0.16, G -0.062 ± 0.073, A 0.708 ± 0.078, E 1.09 ± 0.082, Q 0.7 ± 0.093, W -0.566 ± 0.1, N 0.65 ± 0.12, R 0.428 ± 0.074, M 0.313 ± 0.091
L1: R -0.874 ± 0.5, W -0.334 ± 0.15, E 0.068 ± 0.21, G -0.525 ± 0.21, Y -0.198 ± 0.21
V39: I -0.599 ± 0.15, E 0.144 ± 0.098, N 0.168 ± 0.18, G 0.352 ± 0.086, C -0.134 ± 0.16, Y -0.851 ± 0.26, M -0.174 ± 0.12, H -0.263 ± 0.18
I23: S -0.49 ± 0.1, Y -0.209 ± 0.16, M -0.733 ± 0.18, C -0.892 ± 0.15, T -0.786 ± 0.16, F -0.715 ± 0.19, W -0.811 ± 0.12, N -0.708 ± 0.3, H -0.833 ± 0.42, L -0.57 ± 0.099
D17: H -0.691 ± 0.18, R -0.697 ± 0.085, S -0.625 ± 0.09, T -0.793 ± 0.12, M -0.88 ± 0.12, G -0.76 ± 0.084, I -0.63 ± 0.11, A -0.69 ± 0.11, P -0.867 ± 0.12, K -0.547 ± 0.1, Q -0.571 ± 0.14
L40: S 0.139 ± 0.085, K 0.041 ± 0.11, G 0.164 ± 0.085, D -0.471 ± 0.17, W -0.136 ± 0.1, T -0.319 ± 0.11, N 0.04 ± 0.15, Q 0.046 ± 0.11, R -0.003 ± 0.082, A -0.127 ± 0.11, V -0.273 ± 0.096, P 0.067 ± 0.11, H 0.07 ± 0.19
W10: A -0.667 ± 0.087, S -0.816 ± 0.096, D -0.68 ± 0.13, V -0.651 ± 0.087, L -0.844 ± 0.092, C -1.01 ± 0.14, Q -0.613 ± 0.11, I -0.596 ± 0.13
Q28: S -0.312 ± 0.091, E -0.525 ± 0.12, D -0.467 ± 0.13, C -0.573 ± 0.13, H -0.204 ± 0.13, G 0.294 ± 0.075
Y8: I -0.08 ± 0.094, E 0.326 ± 0.084, M -0.292 ± 0.099, H -0.094 ± 0.098, F -0.258 ± 0.098, A 0.198 ± 0.081, P 0.157 ± 0.08
T15: Y -0.65 ± 0.13, P -0.531 ± 0.093, Q -0.706 ± 0.1, V -0.862 ± 0.094, F -0.883 ± 0.14, C -1 ± 0.14
N41: Q -0.514 ± 0.14, T -0.23 ± 0.12, K -0.635 ± 0.15, C -0.236 ± 0.14, E -0.227 ± 0.1, D 0.174 ± 0.12
P35: Y -0.369 ± 0.15, Q -0.72 ± 0.14, R -0.88 ± 0.097, I -0.82 ± 0.16, N -0.862 ± 0.18, E -0.634 ± 0.15
C5: P -0.291 ± 0.12, F -0.11 ± 0.11
S45: P -0.127 ± 0.15, A -0.186 ± 0.11, V -0.103 ± 0.11, Q -0.32 ± 0.2, F -0.759 ± 0.18, R -0.173 ± 0.11, Y -0.287 ± 0.13, K -0.169 ± 0.18, W -0.914 ± 0.22
D4: W -0.499 ± 0.097, H -0.835 ± 0.17, Y -0.863 ± 0.15, A -0.561 ± 0.085, F -0.613 ± 0.16, T -0.535 ± 0.11, P -0.511 ± 0.13, V -0.766 ± 0.092
L42: A -0.05 ± 0.088, N 0.578 ± 0.12, K 0.16 ± 0.12, W -0.292 ± 0.1, E 0.198 ± 0.1, V 0.052 ± 0.081, D 0.022 ± 0.14
G9: V -0.692 ± 0.081, I -0.459 ± 0.19, L -0.636 ± 0.084, E -0.184 ± 0.088, D -0.604 ± 0.086, H -0.86 ± 0.15, C -0.892 ± 0.12, M -0.865 ± 0.12, A -0.803 ± 0.087
S38: R -0.418 ± 0.085, N -0.046 ± 0.13, Q -0.697 ± 0.15, E -0.693 ± 0.13, H -0.678 ± 0.21, Y -0.376 ± 0.14, I -0.845 ± 0.23, A -0.649 ± 0.1, W -0.264 ± 0.1
D2: R -0.603 ± 0.09, T -0.334 ± 0.12, E -0.206 ± 0.097, G -0.366 ± 0.082, A -0.445 ± 0.084, S -0.478 ± 0.096, C -0.699 ± 0.12
P7: S -0.834 ± 0.1, R -0.782 ± 0.094, H -0.669 ± 0.15, V -0.742 ± 0.088, F -0.616 ± 0.13, T -0.483 ± 0.12
V26: G 0.022 ± 0.08, A 0.058 ± 0.094, R -0.096 ± 0.08, L -0.482 ± 0.1, F -0.294 ± 0.15, D -0.087 ± 0.14, T 0.168 ± 0.12
V36: R 0.712 ± 0.081, D 0.168 ± 0.11, S 0.659 ± 0.084, T 0.526 ± 0.095, Y -0.254 ± 0.13, I -0.598 ± 0.15, W -0.424 ± 0.12
